Patent publication US9279017B2

Assays:
[1] = biological target: recombinant human GM-CSF (rhGM-CSF) (human) (UniProt P04141); test: SPR (BIAcore), rhGM-CSF immobilised, analyte 38.5 nM
[2] = biological target: recombinant human GM-CSF (rhGM-CSF) (human) (UniProt P04141)
[3] = biological target: recombinant human GM-CSF (rhGM-CSF) (human) (UniProt P04141); test: SPR (BIAcore), rhGM-CSF immobilised, analyte 116 nM
[4] = biological target: recombinant human GM-CSF (rhGM-CSF) (human) (UniProt P04141); test: SPR (BIAcore), rhGM-CSF immobilised, analyte 347 nM
[5] = biological target: recombinant human GM-CSF (rhGM-CSF) (human) (UniProt P04141); test: SPR (BIAcore), rhGM-CSF immobilised, analyte 1040 nM
[6] = biological target: recombinant human GM-CSF (rhGM-CSF) (human) (UniProt P04141); test: SPR (BIAcore), kinetic analysis, rhGM-CSF immobilised
[7] = biological target: recombinant human GM-CSF (rhGM-CSF) (human) (UniProt P04141); test: SPR (BIAcore), rhGM-CSF immobilised, analyte 12.8 nM
[8] = biological target: recombinant human GM-CSF (rhGM-CSF) (human) (UniProt P04141); test: SPR (BIAcore), rhGM-CSF immobilised, analyte 3120 nM

B1: half-human SCA B32oN-45 (scFv)
scFv: ELQLVEQSGAALVKPGDSVKMSCKASGYPFTDYIVHWVKQSHGKSLDWIGYINPYSGDTKFNEKFKSKATLTVDKSSSTAYMEFSRLTSEDSAIYYCARSGLIAVYFDYWGQGTTVTVSSGGGGSGGGGSGGGGSELVMTQSPSSVSASVGDRVTIACRASQNIRNILNWYQQRPGKAPQLLIYAASNLQSGVPSRFSGSGSGTDFTLTINSLQPEDFATYYCQQSYSMPRTFGGGTKVEIKTGDYKDDDDK
What does the source list for B1?
Ka [1]: 2.2e+08 M⁻¹; Kd [1]: 4.55 nM; koff [1]: 0.00444 s⁻¹; kon [1]: 975000 M⁻¹ s⁻¹; inhibition of rhGM-CSF dependent proliferation of TF-1 cells [2]: 6 nM; Ka [3]: 1.66e+08 M⁻¹; Kd [3]: 6.01 nM; koff [3]: 0.00464 s⁻¹; kon [3]: 772000 M⁻¹ s⁻¹; Ka [4]: 9.22e+07 M⁻¹; Kd [4]: 10.8 nM; koff [4]: 0.00477 s⁻¹; kon [4]: 440000 M⁻¹ s⁻¹; Ka [5]: 1.89e+07 M⁻¹; Kd [5]: 52.8 nM; koff [5]: 0.0046 s⁻¹; kon [5]: 87100 M⁻¹ s⁻¹; Kd [6]: 50 nM; Ka [7]: 3.25e+08 M⁻¹; Kd [7]: 3.07 nM; koff [7]: 0.00384 s⁻¹; kon [7]: 1.25e+06 M⁻¹ s⁻¹; Ka [8]: 1.06e+07 M⁻¹; Kd [8]: 94.6 nM; koff [8]: 0.00514 s⁻¹; kon [8]: 54300 M⁻¹ s⁻¹
